experiment: yeast display, Sf9 membrane polyspecificity reagent, FACS + sequencing; frameworks hold sequencing errors
How it was run: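 Galactose induction of a Saccharomyces cerevisiae BJ5465 synthetic nanobody display library ran 36–48 hours. The cells were then stained for 1 hour at 4 °C with 10% biotinylated, detergent-solubilized Sf9 membrane reagent, pulled down on streptavidin microbeads and FACS-sorted into low and high (top ~1%) gates on expression and reagent-binding fluorescence. Labels for polyreactivity follow the gate of origin.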

Row | Sequence | polyreactivity (PSR sort gate)
1 | QVQLVESGGGLVQAGGSLRLSCAASGFTFHYYTMGWYRQAPGKERELVASINYSGGRTYYADSVKGRFTISRDNAKNTVYLQMNSLKPEDTAVYYCNARYKSTYYYWGLGTQVTVSS | high polyreactivity
2 | QVQLVESGGGLVQAGGSLRLSCAASGFTFIRNAMGWYRQAPVKERELVAAISKSGGTTYYADSVKGRFTISRDNAKNTVYLQMNSLKPEDTAVYYCNKGIGRSDPDYRYYYWGQGTQVTVSS | high polyreactivity
3 | QVQLVESGGGLVQAGGSLRLSCAASGFTFIRNGMGWYRQAPGKERELVAAINSRGGNTYYADSVKGRFTISRDNAKNTVYLQMNSLKPEDTAVYYCNRVVQRWSTQYGYWGQGTQVTVSS | high polyreactivity
4 | QVQLVESGGGLVQAGGSLRLSCAASGFTFIRYAMGWYRQAPGKERELVASISNRGGRTYYADSVKGRFTISRDNAKNTVYLQMNSLKPEDTAVYYCAAGYSTYRAVWTDNNYWGQGTQVTVSS | high polyreactivity
5 | QVQLVESGGGLVQAGGSLRLSCAASGFTFISNAMGWYRQAPGKERELVAAISSSGGRTYYADSVKGRFTISRDNAKNTVYLQMNRLKPEDTAVYYCNAVRSLLYSRKIEYDYWGQGTQVTVSS | low polyreactivity
6 | QVQLVESGGGLVQAGGSLRLSCAASGFTFISYAMGWYRQAPGKERELVADISSSGDSTSYADSVKGRFTISRDNAKNTVYLQMNSLKPEDTAVYYCAAGDGYVYGEYDYWGQGTQVTVSS | low polyreactivity
7 | QVQLVESGGGLVQAGGSLRLSCAASGFTFITNAMGWYRQAPGNERELVASISIGGSTNYADSVKGRFTISRDNAKNTVYLQMNSLKPEDTAVYYCAARVYRRLFLPGRFGRPLGYWGQGTQVTVSS | high polyreactivity
8 | QVQLVESGGGLVQAGGSLRLSCAASGFTFIYYAMGRYRQAPRKERELVAAISSGGSTYYADSVKGRFTISRDNAKNTVYLQMNSLKPEDTAVYYCAAGYWWPVQYYSRYNYWGQGTQVTVSS | high polyreactivity
9 | QVQLVESGGGLVQAGGSLRLSCAASGFTFIYYAMGWYRQAPGKERELVAAISRVDSTYYADSVKGRFTISSDNAKNTIYLQMNRLKPEDTAVYYFAAASQVRRDHGYWGQGTQVTVSS | low polyreactivity
10 | QVQLVESGGGLVQAGGSLRLSCAASGFTFKAYAMGWYRQAPGKERELVAAITKSGGRTFYADSVKGRFTISRDTAKNTVYFQMNSLKPEDTAVYYCAASYTVYYWGQGTQVTVSS | high polyreactivity
11 | QVQLVESGGGLVQAGGSLRLSCAASGFTFKAYAMGWYRQAPGKERELVAAITRSGGRTYYADSVKGRFTISRDNAKNTVYLQMNSLKPEDTAVYYCARDYTRYAYDHWGQGTQVTVSS | high polyreactivity
12 | QVQLVESGGGLVQAGGSLRLSCAASGFTFKFNAMGWYRQAPGKERELVAAISYSGGSTYYADSVKGRFTISRDNAKNTVYLQMNSLKPEDTAVYYCAARAYWYGASYYYWGQGPQVTVSS | high polyreactivity
13 | QVQLVESGGGLVQAGGSLRLSCAASGFTFKFNTMGWYRQAPGKERELVAANSWRGGDTSYADSVKGRFTISRENAKNTVFLQMYSLKPEDNAVYYCAARSTSIGQRSLHYGYWGQGTQVTVSS | low polyreactivity
14 | QVQLVESGGGLVQAGGSLRLSCAASGFTFKGNAMGWYIQAPGKERELVATITQSAGYTYYADSVKGRFTISRDNAKNTVYLQLNSLKPEDTAVYYCNADPITLYYYSWYNYWGQGTQVTVSS | low polyreactivity
15 | QVQLVESGGGLVQAGGSLRLSCAASGFTFKGYAMGWYRQAPGKERELVAAITRGGSTYYADSVKGRFTISRDNAKNTVYLLMNSLKPEDTAVYYCAARGRGHGTTPNDYWGQGTQVTVSS | high polyreactivity
16 | QVQLVESGGGLVQAGGSLRLSCAASGFTFKKNAMGWYRQATGKERELVAAIRSGTSTKYADSVKGRFTISRDNAKNTVYLQMNSLKPEDTAVYYCAAEEPEYLATWRNRRYDYWGQGTQVTVSS | low polyreactivity
17 | QVQLVESGGGLVQAGGSLRLSCAASGFTFKSYAMGWSRQAPGKERELVAAISRGGSTYYADSVKGRFTISRDNAKNTVYLQMNSLKPEDTAVYYCNKTRYSRSYYEYDYWGQGTQVTVSS | low polyreactivity
18 | QVQLVESGGGLVQAGGSLRLSCAASGFTFKYNAMGWYRQAPGKERELVAGITLRGGSTYYADSVKGRFTISRDNAKNTVYLQMNSLKPEDTAVYYCGAAASNWREYWYWGQGTQVTVSS | low polyreactivity
19 | QVQLVESGGGLVQAGGSLRLSCAASGFTFKYNAMGWYRQAPGKERELVASISRGSSTNYADSVKGRFTISRDNAKNTVYLQMNSLKPEDTAVYYCAKGYRPWGSYDYWGQGTQVTVSS | high polyreactivity
20 | QVQLVESGGGLVQAGGSLRLSCAASGFTFKYNVMGWYRQAPGKERELVAAISKRGGNTYYADSVKGRFTISRDNAKNTVYLQMNSLKPEDTAVYYCAADPTSPETSGQGYDYWGQGTQVTVSS | high polyreactivity
21 | QVQLVESGGGLVQAGGSLRLSCAASGFTFKYYAMGWYRPAPGKERELVAAIRRSAGSTNYADSVKGRFTISRDNAKNTVYLQMNSLKPEDTAVYYCNTVGTRQPMDYWGQGTQVTVSS | high polyreactivity

Row | Sequence | polyreactivity (PSR sort gate)
22 | QVQLVESGGGLVQAGGSLRLSCAASGFTFKYYVMGWSRQAPGKERELVASLSKRGGSTRYADSVKGRFTISRDNAKTTFYLQMHSLKPEDTAVYYCAAAFVRPPPYVGYSRFDYWGQGTQVTLSS | high polyreactivity
23 | QVQLVESGGGLVQAGGSLRLSCAASGFTFKYYVMGWYRQAPGKAREWVAAITNGGSTYYADSVKGRFTISRDNAKNTVYLQMNSLKPEDTAVYYCAASAYYHWLFDYRGQGTQVTVSS | high polyreactivity
24 | QVQLVESGGGLVQAGGSLRLSCAASGFTFKYYVMGWYRQAPGKERELVASISKRGGSRNYADSVKGRFTISRDNAKNTVYLQMNSLKPEDTAVYYCAADYPATSGPRHYYWGQGTQVTVSS | high polyreactivity
25 | QVQLVESGGGLVQAGGSLRLSCAASGFTFLDSYAMGWYRQAPGKERELVAGITWSVGTTYYADSVKGRFTISRDNAKNTVYLHMNSLKPEDTAVYYCNAVIDVHDPEYDYWGQGTQVTVSS | low polyreactivity
26 | QVQLVESGGGLVQAGGSLRLSCAASGFTFLGNAMGWYRQAPGKERELVATITSGGNTKYADSVKGRFTISRDNAKNTVYFQINSLKPEDTAVYYFARDRKRQADDICEFDYWGQGSQVTVSS | low polyreactivity
27 | QVQLVESGGGLVQAGGSLRLSCAASGFTFLGNVMGWYRQAPGKERELVAAISITGSTSYADSVKGRFTISRDNAKNTVYLQMNSLKPEDTAVYYCAADGGQVDDSATRLYYWGQGTQVTVSS | high polyreactivity
28 | QVQLVESGGGLVQAGGSLRLSCAASGFTFLINAMGWYRQAPGKERELVAAIRSGGSTNYADSVKGRFTISRDNAKNSVYFQMNSLKPEDTAVYYCAARRYYPYKYRYGYWGQGTQVTVSS | high polyreactivity
29 | QVQLVESGGGLVQAGGSLRLSCAASGFTFLKNAMGWYRQAPGKERELVAAITSSGGRTYYADSVKGRFTISRDNAKNTVYLQMNSLKPEDTAVYFCIKGPLPGYDYWGQGTQVTVSS | high polyreactivity
30 | QVQLVESGGGLVQAGGSLRLSCAASGFTFLLYAMGWYRQAPGKERELVAAITWSTGNTYYADSVKGRFTISRDNAKNTVYLQMNSLKPEDTAVYYCYAEYLVITWYGGVEFDYWGQGTQVTVSS | low polyreactivity
31 | QVQLVESGGGLVQAGGSLRLSCAASGFTFLPAYAMGWYRQAPGKERELVAAITRGGSTYYADSVKGRFTISRDNAKNTVYLQMNSLKPEDSAVYYCNADQKFGFYRSVGDDYWGQGTQVTVSS | low polyreactivity
32 | QVQLVESGGGLVQAGGSLRLSCAASGFTFLPYVMGWYRQAPGKERELVAGITRTGSTNYADSVKGRFTISRDNAKNTVYLQMNSLKPEDTAVYYCAARLKYWGDYYYWGQGTQVTVSS | low polyreactivity
33 | QVQLVESGGGLVQAGGSLRLSCAASGFTFLSYAMGWYRQAPGKERELVAAISRSGGSTYYADSVKGRFTISRDNAKNTVYLQMNSLKPEDTAVYYCAARSAFRNQFSRNNYWGQGTQVTVSS | high polyreactivity
34 | QVQLVESGGGLVQAGGSLRLSCAASGFTFLWYAMGWYRQAPGKERELVAGISSDGSTYADSVKGRFTISRDNAKNTVYLQMNSLKQEDTAVYYCAAVNNSSIRDNDYWGQGTQVTVSS | low polyreactivity
35 | QVQLVESGGGLVQAGGSLRLSCAASGFTFLYNAMGWYRQAPGKERELVAAIDSGGNTNYADSVKGRFTISRDNAKNTVYLQMNSLKPEDTAVYYCAADVVSGGQGTADYDYWGQGTQVTVSS | low polyreactivity
36 | QVQLVESGGGLVQAGGSLRLSCAASGFTFNAHAMGWYRQAPGKERELVAVITRSGGRTYYADSVKGRFTISRDNAKNTVYLQMNSLKPEDTAVYYCAKEGPSRVYQGTDSASDYWGQGTQVTVSS | high polyreactivity
37 | QVQLVESGGGLVQAGGSLRLSCAASGFTFNAYAMGWYRQAPGKERELVAAINVSGGITYYADSVKGRFTISRDIAKNTVYLQMNSLKPEDTAVYYCAADVEWTSRGSYYRYYYWGQGTQVTVSS | low polyreactivity
38 | QVQLVESGGGLVQAGGSLRLSCAASGFTFNAYAMGWYRQAPGKERELVAAINVSGGITYYADSVKGRFTISRDNAKNTVYLQMNSLNPEDTAVYYCAKGLDVVQRSEFDYWGQGTQVTVSS | low polyreactivity
39 | QVQLVESGGGLVQAGGSLRLSCAASGFTFNFNAMGWYRQAPGKERELVAAIRWSGGNTYYADSVKGRFTISRDNAKNTVYLQMNSLKPEDTAVYYCNRVGYQSMNYWGQGTQVTVSS | low polyreactivity
40 | QVQLVESGGGLVQAGGSLRLSCAASGFTFNGNAMGWYRPAPGKERELVAAITRTGTDTSYADSVKGRFTISRDNAKNTVYLQMNSLKPEDTAVYYCAAPPYNGYRYGTTGYYWGQGTQVTVSS | low polyreactivity
41 | QVQLVESGGGLVQAGGSLRLSCAASGFTFNKNAMGWYRQEPRKERELVAAISSSVGSTRYADSVKGRFTISRDNAKNTVYLQRNSLKPEDTAVYYCAVYVTPHSGWWLYDYWGQGTQVTVSS | high polyreactivity

Source: the nanobody polyreactivity screen of Harvey et al. (2022)
